Experimental data taken from patent publication US7125658B2, “Small protein that interacts with a ribonucleotide reductase subunit and uses thereof” (The Trustees of Columbia University in the City of New York, priority 1998, dated 2006).

Key:
[1] = biological target: T1, Recombinant yeast Rnr1 protein (large subunit of ribonucleotide reductase) (yeast (Saccharomyces cerevisiae), UniProt P21524 1-888); assay: cell-based or functional assay
T1 sequence (looked up): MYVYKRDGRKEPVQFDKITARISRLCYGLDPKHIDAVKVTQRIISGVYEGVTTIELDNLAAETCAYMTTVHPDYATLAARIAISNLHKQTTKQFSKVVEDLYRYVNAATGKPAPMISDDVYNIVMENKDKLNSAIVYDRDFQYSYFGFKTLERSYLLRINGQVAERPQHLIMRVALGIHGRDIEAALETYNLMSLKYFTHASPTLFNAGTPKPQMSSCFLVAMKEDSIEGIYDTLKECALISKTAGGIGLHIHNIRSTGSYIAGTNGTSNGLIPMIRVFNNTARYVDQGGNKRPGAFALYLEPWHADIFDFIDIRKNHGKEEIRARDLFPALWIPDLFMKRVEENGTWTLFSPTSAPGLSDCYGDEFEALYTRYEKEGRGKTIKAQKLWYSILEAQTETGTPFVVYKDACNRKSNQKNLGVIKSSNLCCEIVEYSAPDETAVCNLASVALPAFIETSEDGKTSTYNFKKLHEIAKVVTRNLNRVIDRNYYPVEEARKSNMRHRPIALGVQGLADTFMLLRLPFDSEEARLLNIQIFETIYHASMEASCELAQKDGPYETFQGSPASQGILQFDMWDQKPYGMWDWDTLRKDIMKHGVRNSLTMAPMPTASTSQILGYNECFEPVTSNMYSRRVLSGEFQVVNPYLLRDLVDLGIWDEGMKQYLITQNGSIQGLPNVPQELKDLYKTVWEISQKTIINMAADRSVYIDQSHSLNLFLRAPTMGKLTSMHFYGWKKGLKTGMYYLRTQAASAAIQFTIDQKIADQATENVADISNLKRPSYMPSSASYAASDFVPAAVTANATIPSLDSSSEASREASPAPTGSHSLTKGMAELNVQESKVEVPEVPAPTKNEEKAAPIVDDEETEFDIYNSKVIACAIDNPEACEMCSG

[2] = biological target: T2, bovine serum albumin (bovine, UniProt P02769 25-607); assay: BIAcore, immobilized Sml1p
T2 construct: Control; also called BSA

[3] = biological target: T3, Yeast Rnr2p/Rnr4p heterodimer (yeast (Saccharomyces cerevisiae), UniProt P09938 1-399; P49723 1-345); assay: BIAcore, immobilized Sml1p
T3 construct: Coexpressed and purified as a heterodimer; also called R2/R4 heterodimer
T3 sequence (looked up) 1: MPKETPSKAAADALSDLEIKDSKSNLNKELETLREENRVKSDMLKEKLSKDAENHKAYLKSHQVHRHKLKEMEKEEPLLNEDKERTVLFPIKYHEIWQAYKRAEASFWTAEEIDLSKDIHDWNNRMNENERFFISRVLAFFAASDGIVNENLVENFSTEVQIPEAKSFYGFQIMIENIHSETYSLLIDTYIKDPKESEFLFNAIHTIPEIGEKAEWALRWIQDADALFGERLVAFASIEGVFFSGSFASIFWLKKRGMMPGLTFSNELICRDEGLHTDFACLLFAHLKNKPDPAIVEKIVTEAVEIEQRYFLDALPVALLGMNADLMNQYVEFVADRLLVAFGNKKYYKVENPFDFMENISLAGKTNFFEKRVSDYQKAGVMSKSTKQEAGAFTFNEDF
T3 sequence (looked up) 2: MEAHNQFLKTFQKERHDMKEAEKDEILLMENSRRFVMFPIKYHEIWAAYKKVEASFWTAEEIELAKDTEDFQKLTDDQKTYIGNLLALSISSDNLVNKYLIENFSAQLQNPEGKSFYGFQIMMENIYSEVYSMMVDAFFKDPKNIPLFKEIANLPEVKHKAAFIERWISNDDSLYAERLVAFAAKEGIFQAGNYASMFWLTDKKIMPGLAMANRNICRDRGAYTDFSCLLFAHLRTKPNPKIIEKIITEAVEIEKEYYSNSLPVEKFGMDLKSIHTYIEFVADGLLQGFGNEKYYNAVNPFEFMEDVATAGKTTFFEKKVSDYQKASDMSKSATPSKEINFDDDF

[4] = biological target: T4, yeast Rnr1p (Saccharomyces cerevisiae, UniProt P21524); assay: BIAcore biosensor analysis, immobilized Sml1p and yeast Rnr1p; format: binding
T4 construct: made in house; host or cells: E. coli BL21 (DE3), pET3a
T4 sequence (P21524 1-888): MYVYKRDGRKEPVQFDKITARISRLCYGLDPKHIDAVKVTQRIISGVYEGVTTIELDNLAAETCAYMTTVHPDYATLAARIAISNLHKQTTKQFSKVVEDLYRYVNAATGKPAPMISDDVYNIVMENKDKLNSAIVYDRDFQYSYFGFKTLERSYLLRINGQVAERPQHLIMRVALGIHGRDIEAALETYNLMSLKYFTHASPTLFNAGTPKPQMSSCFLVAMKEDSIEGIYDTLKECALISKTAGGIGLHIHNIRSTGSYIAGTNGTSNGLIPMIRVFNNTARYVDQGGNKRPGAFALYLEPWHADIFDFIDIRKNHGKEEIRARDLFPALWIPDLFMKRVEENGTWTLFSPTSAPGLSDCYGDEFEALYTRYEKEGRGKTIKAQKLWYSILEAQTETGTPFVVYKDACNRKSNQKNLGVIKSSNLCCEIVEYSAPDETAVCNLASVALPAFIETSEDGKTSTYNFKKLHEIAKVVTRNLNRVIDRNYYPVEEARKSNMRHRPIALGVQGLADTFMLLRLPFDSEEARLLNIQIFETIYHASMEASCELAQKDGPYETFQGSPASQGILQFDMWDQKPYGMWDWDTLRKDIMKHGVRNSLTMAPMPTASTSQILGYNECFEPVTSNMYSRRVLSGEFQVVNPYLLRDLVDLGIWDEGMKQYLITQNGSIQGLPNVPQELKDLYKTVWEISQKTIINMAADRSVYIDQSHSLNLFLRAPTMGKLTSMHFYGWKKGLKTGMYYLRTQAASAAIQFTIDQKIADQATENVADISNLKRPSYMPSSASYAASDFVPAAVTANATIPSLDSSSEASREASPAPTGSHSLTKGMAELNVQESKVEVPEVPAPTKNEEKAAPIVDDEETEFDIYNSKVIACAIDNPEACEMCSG
Experimental: BIAcore biosensor analysis. The interaction between Sml1p and either yeast Rnr1p or mouse R1 protein was studied by biosensor analysis using the BIAcore method (Biacore AB). The Sml1 protein was prepared in 10 mM sodium acetate, pH 5.2, at a concentration of 0.44 mg/ml; it was then immobilized on the dextran layer of the sensor chip as described previously for the mouse R2 protein (17). The ligand proteins were equilibrated with running buffer (10 mM Hepes-KOH, pH 7.4, 200 mM potassium acetate, 1 mM EDTA, 5 mM magnesium acetate and 0.05% Surfactant P20 (BIAcore). The interactions were studied at a constant temperature of 22° C. and a constant flow of 5 μl/min. Kinetics for the interaction of Sml1p with yeast Rnr1p was determined by allowing the immobilized Sml1p to interact with increasing concentrations of Rnr1p (18). The resonance unit (RU) is proportional to the mass, and 1 RU corresponds to a surface concentration of 1 pg of protein/mm^2 of the 100 nm thick dextran layer (19).
Kinetic studies of the interaction between the Rnr1 and Sml1 proteins using a biosensor technique. To obtain a quantitative description of the Rnr1p and Sml1p interaction, we immobilized the Sml1 protein to the dextran layer of a sensor chip, and then injected a series of solutions containing increasing concentrations of Rnr1p to the same sensor chip. The immobilization of Sml1p at a concentration of 0.44 mg/ml gave an increase of 91 resonance units (RU), which correspond to 91 pg/mm^2. With a surface of 0.8 mm 2, 91 RU corresponds to a total of 72.8 pg of bound Sml1p, which can be compared with the total injected amount of 15.4 μg. This low degree of attachment (only 0.0005%) makes it unlikely that the protein is attached to multiple binding sites.
In control experiments, where the same series of Rnr1p solutions passed a sensor chip without immobilized Sml1p, a “bulk effect” gave a response of only about 60 RU. The same background value of about 60 RU was observed when bovine serum albumin or Rnr2p/Rnr4p heterodimer was injected at a concentration of 0.1 mg/ml (data not shown). In FIG. 1B, the response at equilibrium is plotted against the concentration of injected Rnr1p. […] These values correspond to 691 pg/mm^2 or a total of 553 pg or 5.5 fmol Rnr1p monomer bound to about 6.2 fmol immobilized Sml1p, i.e. nearly one Rnr1p monomer bound per molecule of immobilized Sml1p. […] Calculating the equilibrium dissociation constant from these rate constants gave a K0 of about 0.25 μM, which is close to the directly determined K0.

[5] = BIAevaluation software, lower curves of FIG. 12A

T2 sequence (P02769 25-607 limits assumed): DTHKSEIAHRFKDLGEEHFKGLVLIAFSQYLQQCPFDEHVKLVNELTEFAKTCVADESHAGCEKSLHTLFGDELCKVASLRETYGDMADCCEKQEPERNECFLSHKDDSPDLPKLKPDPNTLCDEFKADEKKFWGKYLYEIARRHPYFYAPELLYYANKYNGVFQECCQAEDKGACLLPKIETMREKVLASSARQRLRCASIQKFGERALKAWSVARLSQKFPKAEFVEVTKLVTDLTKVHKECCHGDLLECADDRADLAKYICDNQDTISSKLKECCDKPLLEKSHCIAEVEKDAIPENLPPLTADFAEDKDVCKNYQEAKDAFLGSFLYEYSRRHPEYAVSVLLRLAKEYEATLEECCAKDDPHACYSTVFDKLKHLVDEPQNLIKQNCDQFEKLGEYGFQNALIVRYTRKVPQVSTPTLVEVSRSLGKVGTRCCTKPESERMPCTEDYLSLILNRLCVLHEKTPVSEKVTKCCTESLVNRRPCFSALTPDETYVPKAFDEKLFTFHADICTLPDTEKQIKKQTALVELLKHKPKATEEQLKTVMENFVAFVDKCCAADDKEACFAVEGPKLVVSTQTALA

B1: Recombinant yeast Sml1 protein (other)
chain: MQNSQDYFYAQNRCQQQQAPSTLRTVTMAEFRRVPLPPMAEVPMLSTQNSMGSSASASASSLEMWEKDLEERLNSIDHDMNNNKFGSGELKSMFNQGKVEEMDF
notes: Immobilized on the BIAcore chip in the biosensor experiments; also called YML058W product
For B1, the “efficiency in inhibiting yeast RNR activity relative to the Sml1p C terminal nonapeptide, molar basis” value [1] was roughly 200 times, the binding result [2] was “no binding (tested: 0.1 mg/ml)” and the binding result [3] was “no binding (tested: 0.1 mg/ml)”.

B2: Sml1p: 104 amino acid yeast protein encoded by YML058w (SML1) that binds Rnr1 and inhibits ribonucleotide reductase; recombinant, expressed in E. coli (protein)
chain: MQNSQDYFYAQNRCQQQQAPSTLRTVTMAEFRRVPLPPMAEVPMLSTQNSMGSSASASASSLEMWEKDLEERLNSIDHDMNNNKFGSGELKSMFNQGKVEEMDF
With B2 the association rate constant [4, 5] was “about 153000 M^1s^−1”, the dissociation rate constant [4, 5] was 0.04 s⁻¹ and the maximal binding ([4]; Rnr1p bound to immobilized Sml1p (91 RU)) was 691 RU. The Kd ([4]; immobilized Sml1p, mobile phase Rnr1p, 22° C., response at equilibrium fitted to one site binding model, read-out: equilibrium dissociation constant (KD)) was 400 nM.
